In patent US20110039770A1, “INHIBITORS OF PROTEIN KINASE C ISOFORMS AND USES THEREOF” (PHARMAGAP INC., priority 2005, published 2011):
Where a SMILES comes first, the peptide text is derived from it. [ ]: non-standard residue; d: D form.

Assays:
[1] = biological target: PKC-α (Homo sapiens, UniProt P17252); test: ELISA-based competitive binding assay with purified PKC isoform; set-up: key to Affinity for PKC isoform α: —: no detectable affinity; Low to very low affinity at 10X or 20X or both PRE concentrations in at least one cell line in the cell extract assay; Low affinity in purified isoform assay.; Moderate affinity at 10X or 20X or both PRE concentrations in at least one cell line in the cell extract assay.; High affinity at 10X or 20X or both PRE concentrations in at least one cell line in the cell extract assay; High affinity in purified isoform assay; conditions: for Affinity for PKC isoform α: Purified isoform
Experimental: (§1) Peptides PRE 1, 2, 3, 4, 5, 6, 7, 8, 9, 10, 11, 12 and 13 (see Table 3) were tested for their ability to interfere with binding of PKC isoform-specific antibodies to their target PKC isoforms using a competitive binding assay and purified PKC isoforms.
(§2) Procedure: Competitive binding was assessed using a 96 well plate ELISA-based assay as described below.
(§3) Greiner 96 well ELISA plates were coated with the appropriate PKC isoform diluted in PBSN (PBS with Calcium/Magnesium+0.05% Sodium azide w/w). 50 μL/well at 250 ng/mL was used. Control wells contained PBSN only. Plates were incubated overnight at 4° C.
(§4) The plates were washed 3 times with 200 μL of dH2O per well, then 100 μL of blocking solution was added per well and the plate incubated for 1 h at 37° C. The washing steps with dH2O were repeated and 50 μL of the appropriate PRE solution (PRE stock solution [20 mM in DMSO] diluted in PBSN) was added and the plate incubated for 1 h at room temperature.
(§5) After incubation, 5 μL of 1.1:400 anti-PKC (isoform specific antibody) was added per well (to provide a final concentration of 1:4000). For PKC-epsilon, 1.1:800 dilution was used and for PKC-zeta a 1.1:100 dilution was used due to high and low binding affinity, respectively. The plates were then incubated 1 h at room temperature, followed by washing with dH2O as described above.
(§6) 50 μL of 1:1000 dilution of Alkaline Phosphatase (AP) conjugated antibody (anti-rabbit for all except zeta, which was anti-goat) was then added and the plate incubated for 1 h at room temperature. Washing with dH2O was then repeated. Finally, 100 μL of pNPP solution in pNPP buffer (2 mM MgCl2, 100 mM Sodium bicarbonate in water, pH 9.8) was added to all wells and incubated for 8 minutes for α, βI, βII ε, and ζ, or for 15-20 mins for δ (until sufficient coloration is observed). The reaction was stopped by addition of Stop solution (2N NaOH) and the absorbance at 405 nm was read on a Galaxy Plate reader.
(§7) Controls were PKC without PRE; blank controls, and controls containing the final concentrations of DMSO used for solubilizing the PREs. The non-specific binding capacity related to DMSO was also measured.
(§8) The antibodies used were as follows: anti-PKC α (Cat. No. SC-208); anti-PKC βI (Cat. No. SC-209); anti-PKC βII (Cat. No. SC-210); anti-PKC δ (Cat. No. SC-213); anti-PKC ε (Cat. No. SC-214); anti-PKC ζ (Cat. No. SC-216-G) (all from Santa Cruz Biotechnology, Inc.). The AP-conjugated antibodies were obtained from Jackson Immuno Research Laboratories (West Grove, Pa.).
(§9) Calculations: The OD values measured at 405 nm represent the free PKC coated per well.
(§10) OD405 PKC alone−Blank OD405 of each sample=OD405 coated isoform
(§11) (OD405 of sample X/OD405 coated isoform)×100=% n that represents the percentage of X binding compared to control.
(§12) 100-% n measures the relative binding capacity of X towards the tested isoform.
(§13) The apparent binding capacity of the DMSO samples was then subtracted from X binding capacity.
(§14) All measurements were made in triplicate and the values in the table represent the averaged calculated binding capacity values after subtraction of the DMSO apparent binding capacity (averaged from 12 values, respectively 10.80, 11.20 and 16.40 corresponding to the concentrations of DMSO used to dilute the […] at 200, 100 and 50 μM respectively). The results allow for quantitative comparison of the binding capacity of each PRE towards an individual isoform within each table, but not among isoforms due to differences in sensitivity of the specific antibodies toward the secondary antibody. This applies particularly to PKC-delta. As noted above, the colour development duration was increased 2-3 times and, as a result, the OD405 measurements may be overestimated for this isoform.

[2] = biological target: PKC-βI (Homo sapiens, UniProt P05771); test: as above; set-up: key to Affinity for PKC isoform βI: —: no detectable affinity; Low to very low affinity at 10X or 20X or both PRE concentrations in at least one cell line in the cell extract assay; Low affinity in purified isoform assay.; Moderate affinity at 10X or 20X or both PRE concentrations in at least one cell line in the cell extract assay.; High affinity at 10X or 20X or both PRE concentrations in at least one cell line in the cell extract assay; High affinity in purified isoform assay; conditions: for Affinity for PKC isoform βI: Purified isoform
Experimental: as §1, §2, §3, §4, §5, §6, §7, §8, §9, §10, §11, §12, §13, §14

Sequence of PKC-βI (P05771 whole entry, canonical isoform): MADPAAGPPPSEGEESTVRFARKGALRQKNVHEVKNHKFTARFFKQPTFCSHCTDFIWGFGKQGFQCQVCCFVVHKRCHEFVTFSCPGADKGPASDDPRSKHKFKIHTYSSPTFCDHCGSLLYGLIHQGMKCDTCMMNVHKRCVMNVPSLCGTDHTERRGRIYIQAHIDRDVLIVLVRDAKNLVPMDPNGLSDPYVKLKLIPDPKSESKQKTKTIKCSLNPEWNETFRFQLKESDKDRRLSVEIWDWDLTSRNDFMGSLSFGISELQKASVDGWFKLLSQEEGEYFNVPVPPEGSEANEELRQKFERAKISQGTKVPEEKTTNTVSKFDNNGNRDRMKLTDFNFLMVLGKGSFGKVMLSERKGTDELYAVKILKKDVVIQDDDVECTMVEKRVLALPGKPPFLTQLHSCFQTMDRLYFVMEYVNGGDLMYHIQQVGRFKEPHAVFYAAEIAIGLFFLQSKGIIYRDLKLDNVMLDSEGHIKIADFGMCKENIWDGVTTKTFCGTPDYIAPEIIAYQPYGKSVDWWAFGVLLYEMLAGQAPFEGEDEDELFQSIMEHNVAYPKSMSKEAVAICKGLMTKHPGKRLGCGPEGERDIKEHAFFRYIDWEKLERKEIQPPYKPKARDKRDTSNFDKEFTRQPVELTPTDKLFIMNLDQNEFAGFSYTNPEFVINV

| Molecule | Affinity for PKC isoform α [1] | Affinity for PKC isoform βI [2] | also measured |
| --- | --- | --- | --- |
| CC[C@H](C)[C@H](NC(=O)[C@H](CO)NC(=O)[C@@H](NC(=O)CNC(=O)[C@@H](NC(=O)[C@H](CC(C)C)NC(=O)[C@H](CC(N)=O)NC(=O)[C@H](CCC(N)=O)NC(=O)[C@H](C)NC(=O)[C@H](CC(=O)O)NC(=O)CNC(=O)CNC(=O)[C@H](CCCCN)NC(=O)[C@@H](NC(=O)[C@H](CCC(=O)O)NC(=O)[C@H](CCC(N)=O)NC(=O)[C@@H](NC(=O)CNC(=O)[C@H](CCCCN)NC(=O)[C@H](C)NC(C)=O)[C@@H](C)CC)C(C)C)[C@@H](C)CC)[C@@H](C)CC)C(N)=O [PRE 3] (Ac-AKGIQEVKGGDAQNLIGISI-NH2) | H | H |  |
| CC[C@H](C)[C@H](NC(=O)[C@H](CO)NC(=O)[C@@H](NC(=O)CNC(=O)[C@@H](NC(=O)[C@H](CC(C)C)NC(=O)[C@H](CC(N)=O)NC(=O)[C@H](CCC(N)=O)NC(=O)[C@H](C)NC(=O)[C@H](CC(=O)O)NC(=O)[C@H](CCCCN)NC(C)=O)[C@@H](C)CC)[C@@H](C)CC)C(N)=O [PRE 4, Ac-KDAQNLIGISI-NH2] (Ac-KDAQNLIGISI-NH2) | H | L |  |
| CC[C@H](C)[C@H](NC(=O)[C@H](CO)NC(=O)[C@@H](NC(=O)CNC(=O)[C@@H](NC(=O)[C@H](CC(C)C)NC(=O)[C@H](CC(N)=O)NC(=O)[C@H](CCC(N)=O)NC(=O)[C@H](C)NC(=O)[C@H](CC(=O)O)NC(=O)[C@H](CCCCN)NC(=O)CNC(=O)CNC(=O)[C@H](CCCCN)NC(=O)[C@@H](NC(=O)[C@H](CCC(=O)O)NC(=O)[C@H](CCC(N)=O)NC(=O)[C@@H](NC(=O)CNC(=O)[C@H](CCCCN)NC(=O)[C@H](C)NC(C)=O)[C@@H](C)CC)C(C)C)[C@@H](C)CC)[C@@H](C)CC)C(N)=O [PRE 5] (Ac-AKGIQEVKGGKDAQNLIGISI-NH2) | — | — | inhibition at 50 µM ([1]; PRE 50 μM, purified PKC-α, read-out: calculated binding capacity (100-% n, DMSO apparent binding subtracted)): 0%; inhibition at 100 µM ([1]; PRE 100 μM, purified PKC-α, read-out: calculated binding capacity (100-% n, DMSO apparent binding subtracted)): 0%; inhibition at 200 µM ([1]; PRE 200 μM, purified PKC-α, read-out: calculated binding capacity (100-% n, DMSO apparent binding subtracted)): 0%; inhibition at 50 µM ([2]; PRE 50 μM, purified PKC-βI, read-out: calculated binding capacity (100-% n, DMSO apparent binding subtracted)): 0%; inhibition at 100 µM ([2]; PRE 100 μM, purified PKC-βI, read-out: calculated binding capacity (100-% n, DMSO apparent binding subtracted)): 0%; inhibition at 200 µM ([2]; PRE 200 μM, purified PKC-βI, read-out: calculated binding capacity (100-% n, DMSO apparent binding subtracted)): 0% |
| Ac-ISIGILNQADK-NH2 [PRE 10] | — | — |  |
| Ac-ISIGILQNADK-NH2 (not fully specified; printed as Ac-ISIGILQNADK-NH2) [PRE 7] | L | — | calculated binding capacity (100-% n, DMSO apparent binding subtracted) ([2]; PRE 50 μM, purified PKC-βI): 2.10% |
| Ac-KDANQLIGISI-NH2 [PRE 6] | — | L |  |
| Ac-KDAQNLI-NH2 [PRE 12] | — | — |  |
| Ac-RDAQNLI-NH2 [PRE 13] | — | — |  |
| Ac-RDAQNLIGISI-NH2 [PRE 11] | L | — |  |
| Ac-isigilqnadk-NH2 (Ac-[dI][dS][dI]G[dI][dL][dQ][dN][dA][dD][dK]-NH2; SMILES CC[C@@H](C)[C@@H](NC(C)=O)C(=O)N[C@H](CO)C(=O)N[C@@H](C(=O)NCC(=O)N[C@@H](C(=O)N[C@H](CC(C)C)C(=O)N[C@H](CCC(N)=O)C(=O)N[C@H](CC(N)=O)C(=O)N[C@H](C)C(=O)N[C@H](CC(=O)O)C(=O)N[C@H](CCCCN)C(N)=O)[C@H](C)CC)[C@H](C)CC) [PRE 9] | — | L | calculated binding capacity (100-% n, DMSO apparent binding subtracted) ([1]; PRE 100 μM, purified PKC-α): 5.35%; calculated binding capacity (100-% n, DMSO apparent binding subtracted) ([2]; PRE 50 μM, purified PKC-βI): 11.53%; calculated binding capacity (100-% n, DMSO apparent binding subtracted) ([2]; PRE 100 μM, purified PKC-βI): 8.82%; calculated binding capacity (100-% n, DMSO apparent binding subtracted) ([2]; PRE 200 μM, purified PKC-βI): 5.72% |
| ILEDKGGDAQNLIGISI [PRE 8] | — | — |  |
| RRKKGGKDFVVKR [PRE 1] | — | H |  |
